# ± gives the uncertainty stated by the source.
# Assay: self-splicing fitness, log relative to wild type (ln ratio); higher = more splicing; Tetrahymena group I intron in knt gene, E. coli kanamycin selection, DiMSum; sequences stand for … in CUCUCU…GGAGGGAAAAGUUAUCAGGCAUGCACCUGGUAGCUAGUCUUUAAACCAAUAGAUUGCAUCGGUUUAAAAGGCAAGACCGUCAAAUUGCGGGAAAGGGGUCAACAGCCGUUCAGUACCAAGUCUCAGGGGAAACUUUGAGAUGGCCUUGCAAAGGGUAUGGUAAUAAGCUGACGGACAUGGUCCUAACCACGCAGCCAAGUCCUAAGUCAACAGAUCUUCUGUUGAUAUGGAUGCAGUUCACAGACUAAAUGUCGGUCGGGGAAGAUGUAUUCUUCUCAUAAGAUAUAGUCGGACCUCUCCUUAAUGGGAGCUAGCGGAUGAAGUGAUGCAACACUGGAGCCGCUGGGAACUAAUUUGUAUGCGAAAGUAUAUUGAUUAGUUUUGGAGUACUCGUGGUCG
# Method in brief: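 Library with all eight P1ex-region intron nucleotides randomised, intron inside the knt kanamycin-resistance gene on pET-22b(+), in E. coli BL21(DE3). Cells grew overnight at 37°C or 30°C on LB agar with or without 25 μg/mL kanamycin (plus 100 μg/mL carbenicillin, 50 μM IPTG, 0.2% rhamnose), in six replicate transformations. Pooled colonies were amplicon-sequenced on Illumina HiSeq 2500. DiMSum fitness is the error-weighted combination of wild-type-normalised replicate fold changes, kanamycin versus none.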
Sequence,self-splicing fitness (ln) (30 °C),self-splicing fitness (ln) (37 °C)
GGCAAGCAAUAUUACGAGGG,-2.89 ± 0.13,-2.34 ± 0.14
GGCAAGCAAUAUUACGAUAG,-2.73 ± 0.19,-2.18 ± 0.14
GGCAAGCAAUAUUACGAUCG,-0.12 ± 0.054,-0.459 ± 0.066
GGCAAGCAAUAUUACGAUGC,-2.36 ± 0.11,-1.02 ± 0.12
GGCAAGCAAUAUUACGCAAC,-2.24 ± 0.12,-0.823 ± 0.1
GGCAAGCAAUAUUACGCAGA,-1.23 ± 0.15,-0.852 ± 0.16
GGCAAGCAAUAUUACGCCCA,-1.95 ± 0.15,-0.268 ± 0.12
GGCAAGCAAUAUUACGCUAA,-0.671 ± 0.089,0.1 ± 0.12
GGCAAGCAAUAUUACGCUCC,-2.93 ± 0.44,-1.07 ± 0.36
GGCAAGCAAUAUUACGCUUA,-0.449 ± 0.076,0.129 ± 0.1
GGCAAGCAAUAUUACGGACC,-1.77 ± 0.18,-0.606 ± 0.2
GGCAAGCAAUAUUACGGAGU,-2.62 ± 0.12,-0.542 ± 0.1
GGCAAGCAAUAUUACGGCCG,-1.09 ± 0.11,0.00962 ± 0.13
GGCAAGCAAUAUUACGGGGA,-3.51 ± 0.26,-1.31 ± 0.3
GGCAAGCAAUAUUACGGGUG,-0.914 ± 0.055,-0.195 ± 0.066
GGCAAGCAAUAUUACGUACA,-0.414 ± 0.071,0.296 ± 0.094
GGCAAGCAAUAUUACGUCUA,-0.593 ± 0.084,0.16 ± 0.085
GGCAAGCAAUAUUACGUGAU,-0.97 ± 0.078,-0.169 ± 0.092
GGCAAGCAAUAUUACGUGCC,,-1.47 ± 0.43
GGCAAGCAAUAUUACGUGUC,-2.42 ± 0.11,-3.08 ± 0.17
GGCCAGCAAUAUUACGAAUA,-3.4 ± 0.36,-2.71 ± 0.23
GGCCAGCAAUAUUACGACCA,-1.46 ± 0.1,-0.797 ± 0.11
GGCCAGCAAUAUUACGACUG,-0.744 ± 0.12,-0.348 ± 0.15
GGCCAGCAAUAUUACGAGUC,-2.16 ± 0.14,-1.24 ± 0.14
GGCCAGCAAUAUUACGCACG,-1.18 ± 0.07,-0.36 ± 0.082

Sequence,self-splicing fitness (ln) (30 °C),self-splicing fitness (ln) (37 °C)
GGCCAGCAAUAUUACGCAUU,-0.554 ± 0.05,0.109 ± 0.067
GGCCAGCAAUAUUACGCCAC,-4.58 ± 0.46,-1.8 ± 0.49
GGCCAGCAAUAUUACGCCUU,-2.04 ± 0.12,-0.815 ± 0.097
GGCCAGCAAUAUUACGCGGU,-3.63 ± 0.46,-2.53 ± 0.34
GGCCAGCAAUAUUACGCGUU,-0.164 ± 0.09,0.0494 ± 0.12
GGCCAGCAAUAUUACGCUAA,-0.606 ± 0.09,-0.303 ± 0.1
GGCCAGCAAUAUUACGCUGU,-1.74 ± 0.08,-1.37 ± 0.11
GGCCAGCAAUAUUACGGAGU,-0.585 ± 0.063,-0.166 ± 0.084
GGCCAGCAAUAUUACGGAUG,-0.5 ± 0.08,-0.503 ± 0.077
GGCCAGCAAUAUUACGGCAG,-0.833 ± 0.058,-0.191 ± 0.1
GGCCAGCAAUAUUACGGCGU,-1.59 ± 0.098,-0.69 ± 0.12
GGCCAGCAAUAUUACGGUAU,-0.512 ± 0.06,0.47 ± 0.084
GGCCAGCAAUAUUACGGUUG,-0.224 ± 0.062,-0.166 ± 0.075
GGCCAGCAAUAUUACGUAAU,-0.304 ± 0.098,-0.62 ± 0.098
GGCCAGCAAUAUUACGUGCA,-0.734 ± 0.078,-0.196 ± 0.074
GGCCAGCAAUAUUACGUGGA,-4.07 ± 0.25,-2.49 ± 0.17
GGCCAGCAAUAUUACGUGGC,-0.533 ± 0.25,-1.69 ± 0.35
GGCCAGCAAUAUUACGUUAU,-2.4 ± 0.13,-0.702 ± 0.11
GGCGAGCAAUAUUACGAACG,-1.57 ± 0.078,0.152 ± 0.091
GGCGAGCAAUAUUACGAAGU,-2.81 ± 0.44,-1.21 ± 0.19
GGCGAGCAAUAUUACGAUGG,-2.32 ± 0.24,
GGCGAGCAAUAUUACGAUUA,-2.12 ± 0.22,-1.44 ± 0.17
GGCGAGCAAUAUUACGCUAA,-2.83 ± 0.32,-1.02 ± 0.22
GGCGAGCAAUAUUACGCUGC,-2.58 ± 0.39,-0.462 ± 0.37
GGCGAGCAAUAUUACGCUUC,-3.8 ± 0.34,-2.53 ± 0.49

Sequence,self-splicing fitness (ln) (30 °C),self-splicing fitness (ln) (37 °C)
GGCGAGCAAUAUUACGGAGU,-3.06 ± 0.4,-1.68 ± 0.4
GGCGAGCAAUAUUACGGAUG,-3.22 ± 0.19,-1.7 ± 0.15
GGCGAGCAAUAUUACGGCCU,-2.45 ± 0.23,
GGCGAGCAAUAUUACGGUCC,,-2.99 ± 0.43
GGCGAGCAAUAUUACGGUCG,-1.13 ± 0.13,-0.98 ± 0.16
GGCGAGCAAUAUUACGUAAG,-3.88 ± 0.38,-1.39 ± 0.27
GGCGAGCAAUAUUACGUACC,-1.44 ± 0.25,
GGCGAGCAAUAUUACGUAUG,-1.78 ± 0.14,-1.01 ± 0.14
GGCGAGCAAUAUUACGUCAC,-3.01 ± 0.23,
GGCGAGCAAUAUUACGUGGU,-4.31 ± 0.27,-1.77 ± 0.16
GGCUAGCAAUAUUACGAAAG,-2.44 ± 0.26,-2.4 ± 0.44
GGCUAGCAAUAUUACGACAC,-0.572 ± 0.11,0.6 ± 0.16
GGCUAGCAAUAUUACGACGC,-0.655 ± 0.41,0.803 ± 0.43
GGCUAGCAAUAUUACGCACU,-0.665 ± 0.1,-0.592 ± 0.1
GGCUAGCAAUAUUACGCCAG,-1.55 ± 0.23,
GGCUAGCAAUAUUACGCCCG,-4.06 ± 0.47,-3.68 ± 0.26
GGCUAGCAAUAUUACGCUGU,-3.44 ± 0.29,-1.19 ± 0.21
GGCUAGCAAUAUUACGGCAG,-1.12 ± 0.23,-0.728 ± 0.38
GGCUAGCAAUAUUACGGCGU,-0.171 ± 0.086,-0.201 ± 0.094
GGCUAGCAAUAUUACGGCUC,-3.26 ± 0.3,
GGCUAGCAAUAUUACGGGUG,-0.804 ± 0.094,-0.739 ± 0.1
GGCUAGCAAUAUUACGGUAG,-2.31 ± 0.27,-0.259 ± 0.23
GGCUAGCAAUAUUACGGUCG,0.0358 ± 0.11,-0.669 ± 0.12
GGCUAGCAAUAUUACGUACA,-1.07 ± 0.12,-0.185 ± 0.11
GGCUAGCAAUAUUACGUCAU,-1.5 ± 0.082,-0.278 ± 0.086

Sequence,self-splicing fitness (ln) (30 °C),self-splicing fitness (ln) (37 °C)
GGCUAGCAAUAUUACGUCCC,,-0.484 ± 0.43
GGCUAGCAAUAUUACGUCGA,-1.19 ± 0.071,-0.818 ± 0.093
GGCUAGCAAUAUUACGUGAC,-1.84 ± 0.14,-1.02 ± 0.16
GGCUAGCAAUAUUACGUUUU,-0.476 ± 0.084,-0.0101 ± 0.093
GGGAAGCAAUAUUACGAGAU,-2.81 ± 0.25,-2.8 ± 0.38
GGGAAGCAAUAUUACGAGGA,-3.34 ± 0.48,-2.24 ± 0.29
GGGAAGCAAUAUUACGAUCU,-0.627 ± 0.27,-0.134 ± 0.24
GGGAAGCAAUAUUACGCACU,-1.78 ± 0.21,-1.94 ± 0.2
GGGAAGCAAUAUUACGCCAU,-3.31 ± 0.25,-0.83 ± 0.25
GGGAAGCAAUAUUACGCCUA,-0.134 ± 0.2,-0.887 ± 0.28
GGGAAGCAAUAUUACGCGGG,-1.49 ± 0.23,-1.8 ± 0.25
GGGAAGCAAUAUUACGCUCG,-0.703 ± 0.27,-1.03 ± 0.18
GGGAAGCAAUAUUACGGAAU,,-1.67 ± 0.42
GGGAAGCAAUAUUACGGGAC,-2.61 ± 0.21,-3.45 ± 0.21
GGGAAGCAAUAUUACGUUUA,-2.23 ± 0.22,-1.51 ± 0.16
GGGCAGCAAUAUUACGAAGA,-2.31 ± 0.21,-0.958 ± 0.16
GGGCAGCAAUAUUACGACAG,-2.72 ± 0.39,-0.948 ± 0.32
GGGCAGCAAUAUUACGACGG,-3.78 ± 0.35,-1.4 ± 0.27
GGGCAGCAAUAUUACGAUGG,-3.22 ± 0.35,
GGGCAGCAAUAUUACGCAUU,-0.0216 ± 0.078,-0.129 ± 0.11
GGGCAGCAAUAUUACGCGGC,,-1.26 ± 0.38
GGGCAGCAAUAUUACGCUCG,-0.812 ± 0.11,-1.24 ± 0.14
GGGCAGCAAUAUUACGGACU,-0.562 ± 0.07,-0.255 ± 0.091
GGGCAGCAAUAUUACGGCAU,0.216 ± 0.12,-0.928 ± 0.12

# From the supplement of paper PMC7877785
